T1: TNFR1 (Homo sapiens, UniProt P19438)
T1 chain: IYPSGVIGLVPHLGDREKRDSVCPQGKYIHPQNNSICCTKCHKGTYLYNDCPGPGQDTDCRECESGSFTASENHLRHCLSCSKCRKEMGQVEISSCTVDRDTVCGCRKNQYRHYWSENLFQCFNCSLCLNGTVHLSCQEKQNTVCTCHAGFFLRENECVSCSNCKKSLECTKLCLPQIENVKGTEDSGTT

B1: L24E (designed binder)
chain: MTLQELLREEALRRAEAEAFRYAEELLAEKFPEQKEYLLDLAEEIESQIRSLSGVDVEDVRKFLDKEWAWVKELLAEHPAELAEVEAARAARLAELRAEVEAKVAA
B2: A80M (designed binder)
chain: MTLQELLREEALRRAEAEAFRYALELLAEKFPEQKEYLLDLAEEIESQIRSLSGVDVEDVRKFLDKEWAWVKELLAEHPMELAEVEAARAARLAELRAEVEAKVAA
B3: E36R (designed binder)
chain: MTLQELLREEALRRAEAEAFRYALELLAEKFPEQKRYLLDLAEEIESQIRSLSGVDVEDVRKFLDKEWAWVKELLAEHPAELAEVEAARAARLAELRAEVEAKVAA
B4: E18R (designed binder)
chain: MTLQELLREEALRRAEARAFRYALELLAEKFPEQKEYLLDLAEEIESQIRSLSGVDVEDVRKFLDKEWAWVKELLAEHPAELAEVEAARAARLAELRAEVEAKVAA
B5: L3E (designed binder)
chain: MTEQELLREEALRRAEAEAFRYALELLAEKFPEQKEYLLDLAEEIESQIRSLSGVDVEDVRKFLDKEWAWVKELLAEHPAELAEVEAARAARLAELRAEVEAKVAA
B6: R21M (designed binder)
chain: MTLQELLREEALRRAEAEAFMYALELLAEKFPEQKEYLLDLAEEIESQIRSLSGVDVEDVRKFLDKEWAWVKELLAEHPAELAEVEAARAARLAELRAEVEAKVAA
B7: K66P (designed binder)
chain: MTLQELLREEALRRAEAEAFRYALELLAEKFPEQKEYLLDLAEEIESQIRSLSGVDVEDVRKFLDPEWAWVKELLAEHPAELAEVEAARAARLAELRAEVEAKVAA
B8: F20N (designed binder)
chain: MTLQELLREEALRRAEAEANRYALELLAEKFPEQKEYLLDLAEEIESQIRSLSGVDVEDVRKFLDKEWAWVKELLAEHPAELAEVEAARAARLAELRAEVEAKVAA
B9: K72P (designed binder)
chain: MTLQELLREEALRRAEAEAFRYALELLAEKFPEQKEYLLDLAEEIESQIRSLSGVDVEDVRKFLDKEWAWVPELLAEHPAELAEVEAARAARLAELRAEVEAKVAA
B10: Y37W (designed binder)
chain: MTLQELLREEALRRAEAEAFRYALELLAEKFPEQKEWLLDLAEEIESQIRSLSGVDVEDVRKFLDKEWAWVKELLAEHPAELAEVEAARAARLAELRAEVEAKVAA
B11: V71P (designed binder)
chain: MTLQELLREEALRRAEAEAFRYALELLAEKFPEQKEYLLDLAEEIESQIRSLSGVDVEDVRKFLDKEWAWPKELLAEHPAELAEVEAARAARLAELRAEVEAKVAA
B12: D56T (designed binder)
chain: MTLQELLREEALRRAEAEAFRYALELLAEKFPEQKEYLLDLAEEIESQIRSLSGVTVEDVRKFLDKEWAWVKELLAEHPAELAEVEAARAARLAELRAEVEAKVAA
B13: K66V (designed binder)
chain: MTLQELLREEALRRAEAEAFRYALELLAEKFPEQKEYLLDLAEEIESQIRSLSGVDVEDVRKFLDVEWAWVKELLAEHPAELAEVEAARAARLAELRAEVEAKVAA
B14: W68V (designed binder)
chain: MTLQELLREEALRRAEAEAFRYALELLAEKFPEQKEYLLDLAEEIESQIRSLSGVDVEDVRKFLDKEVAWVKELLAEHPAELAEVEAARAARLAELRAEVEAKVAA
B15: L93A (designed binder)
chain: MTLQELLREEALRRAEAEAFRYALELLAEKFPEQKEYLLDLAEEIESQIRSLSGVDVEDVRKFLDKEWAWVKELLAEHPAELAEVEAARAARAAELRAEVEAKVAA
B16: K72H (designed binder)
chain: MTLQELLREEALRRAEAEAFRYALELLAEKFPEQKEYLLDLAEEIESQIRSLSGVDVEDVRKFLDKEWAWVHELLAEHPAELAEVEAARAARLAELRAEVEAKVAA
B17: A90M (designed binder)
chain: MTLQELLREEALRRAEAEAFRYALELLAEKFPEQKEYLLDLAEEIESQIRSLSGVDVEDVRKFLDKEWAWVKELLAEHPAELAEVEAARMARLAELRAEVEAKVAA
B18: A94Q (designed binder)
chain: MTLQELLREEALRRAEAEAFRYALELLAEKFPEQKEYLLDLAEEIESQIRSLSGVDVEDVRKFLDKEWAWVKELLAEHPAELAEVEAARAARLQELRAEVEAKVAA
B19: L75T (designed binder)
chain: MTLQELLREEALRRAEAEAFRYALELLAEKFPEQKEYLLDLAEEIESQIRSLSGVDVEDVRKFLDKEWAWVKELTAEHPAELAEVEAARAARLAELRAEVEAKVAA
B20: A105S (designed binder)
chain: MTLQELLREEALRRAEAEAFRYALELLAEKFPEQKEYLLDLAEEIESQIRSLSGVDVEDVRKFLDKEWAWVKELLAEHPAELAEVEAARAARLAELRAEVEAKVSA
B21: S51D (designed binder)
chain: MTLQELLREEALRRAEAEAFRYALELLAEKFPEQKEYLLDLAEEIESQIRDLSGVDVEDVRKFLDKEWAWVKELLAEHPAELAEVEAARAARLAELRAEVEAKVAA
B22: E58S (designed binder)
chain: MTLQELLREEALRRAEAEAFRYALELLAEKFPEQKEYLLDLAEEIESQIRSLSGVDVSDVRKFLDKEWAWVKELLAEHPAELAEVEAARAARLAELRAEVEAKVAA
B23: V100C (designed binder)
chain: MTLQELLREEALRRAEAEAFRYALELLAEKFPEQKEYLLDLAEEIESQIRSLSGVDVEDVRKFLDKEWAWVKELLAEHPAELAEVEAARAARLAELRAECEAKVAA
B24: P32H (designed binder)
chain: MTLQELLREEALRRAEAEAFRYALELLAEKFHEQKEYLLDLAEEIESQIRSLSGVDVEDVRKFLDKEWAWVKELLAEHPAELAEVEAARAARLAELRAEVEAKVAA
B25: D65E (designed binder)
chain: MTLQELLREEALRRAEAEAFRYALELLAEKFPEQKEYLLDLAEEIESQIRSLSGVDVEDVRKFLEKEWAWVKELLAEHPAELAEVEAARAARLAELRAEVEAKVAA
B26: P32G (designed binder)
chain: MTLQELLREEALRRAEAEAFRYALELLAEKFGEQKEYLLDLAEEIESQIRSLSGVDVEDVRKFLDKEWAWVKELLAEHPAELAEVEAARAARLAELRAEVEAKVAA
B27: E99T (designed binder)
chain: MTLQELLREEALRRAEAEAFRYALELLAEKFPEQKEYLLDLAEEIESQIRSLSGVDVEDVRKFLDKEWAWVKELLAEHPAELAEVEAARAARLAELRATVEAKVAA
B28: K62W (designed binder)
chain: MTLQELLREEALRRAEAEAFRYALELLAEKFPEQKEYLLDLAEEIESQIRSLSGVDVEDVRWFLDKEWAWVKELLAEHPAELAEVEAARAARLAELRAEVEAKVAA
B29: S47T (designed binder)
chain: MTLQELLREEALRRAEAEAFRYALELLAEKFPEQKEYLLDLAEEIETQIRSLSGVDVEDVRKFLDKEWAWVKELLAEHPAELAEVEAARAARLAELRAEVEAKVAA
B30: E36T (designed binder)
chain: MTLQELLREEALRRAEAEAFRYALELLAEKFPEQKTYLLDLAEEIESQIRSLSGVDVEDVRKFLDKEWAWVKELLAEHPAELAEVEAARAARLAELRAEVEAKVAA
B31: A28G (designed binder)
chain: MTLQELLREEALRRAEAEAFRYALELLGEKFPEQKEYLLDLAEEIESQIRSLSGVDVEDVRKFLDKEWAWVKELLAEHPAELAEVEAARAARLAELRAEVEAKVAA
B32: V85T (designed binder)
chain: MTLQELLREEALRRAEAEAFRYALELLAEKFPEQKEYLLDLAEEIESQIRSLSGVDVEDVRKFLDKEWAWVKELLAEHPAELAETEAARAARLAELRAEVEAKVAA
B33: L26Q (designed binder)
chain: MTLQELLREEALRRAEAEAFRYALEQLAEKFPEQKEYLLDLAEEIESQIRSLSGVDVEDVRKFLDKEWAWVKELLAEHPAELAEVEAARAARLAELRAEVEAKVAA
B34: E58W (designed binder)
chain: MTLQELLREEALRRAEAEAFRYALELLAEKFPEQKEYLLDLAEEIESQIRSLSGVDVWDVRKFLDKEWAWVKELLAEHPAELAEVEAARAARLAELRAEVEAKVAA
B35: K35H (designed binder)
chain: MTLQELLREEALRRAEAEAFRYALELLAEKFPEQHEYLLDLAEEIESQIRSLSGVDVEDVRKFLDKEWAWVKELLAEHPAELAEVEAARAARLAELRAEVEAKVAA

Biological target: T1, TNFR1
Assay: yeast display SC50

| Binder | apparent Kd (screen) [nM] |
| --- | --- |
| B1 | 0.869 |
| B2 | 0.49 |
| B3 | 0.653 |
| B4 | 0.718 |
| B5 | 18.3 |
| B6 | 0.956 |
| B7 | 3.99 |
| B8 | 0.446 |
| B9 | 11.4 |
| B10 | 3.3 |
| B11 | 12.5 |
| B12 | 2.48 |
| B13 | 0.653 |
| B14 | 4.39 |
| B15 | 1.4 |
| B16 | 0.49 |
| B17 | 0.539 |
| B18 | 0.79 |

| Binder | apparent Kd (screen) [nM] |
| --- | --- |
| B19 | 0.869 |
| B20 | 0.79 |
| B21 | 2.05 |
| B22 | 0.593 |
| B23 | 0.446 |
| B24 | 0.79 |
| B25 | 0.446 |
| B26 | 0.593 |
| B27 | 0.79 |
| B28 | 0.593 |
| B29 | 0.653 |
| B30 | 2.25 |
| B31 | 0.446 |
| B32 | 0.446 |
| B33 | 0.593 |
| B34 | 0.653 |
| B35 | 0.446 |

From paper PMC12416549 (2024)
